Test results as given in patent US5864028, “Degradation resistant mRNA derivatives linked to TNF-α ribozymes” (Gene Shears Pty. Limited).

Legend:
[1] = biological target: GAPDH (37 kDa ribozyme-binding protein purified from PBMN cells) (Homo sapiens, UniProt P04406 P04406:2-335); assay: ribozyme cleavage rate enhancement; 100 ng/ul GAPDH, 2 mM MgCl2, 37 C; conditions: tags: none; Mono Q purified from PBMN cytoplasmic extract; chain copies: 4 (stated homotetramer); label: 32P internal; hammerhead ribozyme
Description: FIG. 29(A) Ribozymes (2 nM) and the [γ^32P]-labelled 20-mer target RNA (50 nM) were incubated at 37° C. in the presence or absence of different concentrations of purified protein (Filled rectangle) or lactate dehydrogenase (open rectangle) as unspecific protein in a reaction buffer containing 50 mM Tris-HCl pH 7.5 and 1 mM MgCl_2. […] The radioactivity contained in each 5' end was quantified by Phospho-Imager. […] Appropriate time (min) is indicated on the top of each lane. The radioactivity containing in each 5' end-labelled product was quantified and expressed as percentage of radioactivity present in the substrate FIG. 29(D).
Standard cleavage reactions were carried out at 37° C. in buffer containing 50 mM Tris-HCl, pH 7.5 and 10 mM MgCl_2. Multiple turnover cleavage reactions in the presence or absence of GAPDH were performed with 5 mM […], unless otherwise indicated. Ribozyme and substrate were heated separately at 90° C. for 1 min and cooled at 4° C. After this step both RNAs were mixed in cleavage buffer containing 0.2 U RNasin and then divided into 3 samples. Following addition of GAPDH or lactate dehydrogenase (LD) as an unspecific protein to one of the samples, reactions were initiated by the addition of MgCl_2. At specified times, 10 μl aliquots were removed and the reaction was stopped by the addition of 20 mM EDTA and phenol.

[2] = biological target: T1, GAPDH (commercial, rabbit muscle) (Oryctolagus cuniculus, UniProt P46406 P46406:1-333); assay: cleavage enhancement similar to IL-2-Rz2; conditions: tags: commercial; chain copies: 4 (stated homotetramer); hammerhead ribozyme with 5'-3' end duplex
[3] = biological target: T1, GAPDH (commercial, rabbit muscle); assay: ribozyme cleavage rate enhancement; none with LD; conditions: tags: commercial; chain copies: 4 (stated homotetramer); hammerhead ribozyme with 5'-3' end duplex
Description: Autoradiogram of denaturing gels of multiple turnover reactions in the absence FIG. 32(A) or in the presence of GAPDH FIG. 32(B) as well as in the presence of LD as unspecific protein FIG. 32(C). 5 nM of the ribozyme and 50 nM of […] 15-mer substrate were incubated in a reaction mixture containing 50 mM Tris-HCl pH 7.5 and 5 mM MgCl_2 at 37° C. in the absence or presence of proteins (150 ng/μl) and then processed as described below. FIG. 32(D) Quantification of the data shown in A, B and C by Phospho-Imager. Appropriate time (min) is indicated on the top of each lane. FIG. 32(E) Control experiments. A Phospho-Imager printout is shown following separation of the products by 15% PAGE gel. No cleavage activity was seen upon addition of GAPDH in absence of Mg^++ (lane 4). The cleavage rate of the ribozyme (lane 2) is enhanced by the addition of GAPDH (Lane 3). This cleavage enhancement is shut down by phenol treatment of the GAPDH preparation prior to addition (lane 5). Arrows indicated the cleavage products.
Standard cleavage reactions were carried out at 37° C. in buffer containing 50 mM Tris-HCl, pH 7.5 and 10 mM MgCl_2. Multiple turnover cleavage reactions in the presence or absence of GAPDH were performed with 5 mM […], unless otherwise indicated. Ribozyme and substrate were heated separately at 90° C. for 1 min and cooled at 4° C. […]

T1 sequence (P46406 whole entry, one chain of several): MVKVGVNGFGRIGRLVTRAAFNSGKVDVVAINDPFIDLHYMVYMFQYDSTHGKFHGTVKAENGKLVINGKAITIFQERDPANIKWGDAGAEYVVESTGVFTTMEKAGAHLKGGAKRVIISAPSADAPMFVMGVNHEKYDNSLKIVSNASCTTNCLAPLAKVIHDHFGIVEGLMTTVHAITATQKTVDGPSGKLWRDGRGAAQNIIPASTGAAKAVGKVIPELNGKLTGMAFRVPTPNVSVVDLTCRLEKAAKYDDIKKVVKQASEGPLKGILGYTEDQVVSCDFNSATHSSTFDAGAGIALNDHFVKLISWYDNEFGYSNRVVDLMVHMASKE
Chain of GAPDH (37 kDa ribozyme-binding protein purified from PBMN cells) (P04406 2-335, one chain of several): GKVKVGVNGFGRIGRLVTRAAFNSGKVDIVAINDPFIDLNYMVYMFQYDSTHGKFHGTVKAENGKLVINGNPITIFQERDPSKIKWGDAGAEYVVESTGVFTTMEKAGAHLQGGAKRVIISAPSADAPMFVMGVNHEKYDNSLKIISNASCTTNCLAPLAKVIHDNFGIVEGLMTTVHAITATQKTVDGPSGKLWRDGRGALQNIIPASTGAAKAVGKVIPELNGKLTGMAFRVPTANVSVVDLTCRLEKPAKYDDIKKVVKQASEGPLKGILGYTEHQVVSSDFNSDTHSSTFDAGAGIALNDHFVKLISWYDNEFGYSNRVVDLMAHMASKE

B1: TNF-alpha-Rz (ssRNA)
RNA: GUAAGAUGAUCUCUGAUGAGUCCGUGAGGACGAAACUGCCUGGUACUGAAUU
activity [1]: 3.8 fold

B2: IL-2-Rz3 (ssRNA)
RNA: GACUUAGUGCAAUGCAACUGAUGAGUCCGUGAGGACGAAACAGGAGUUGCGAAUU
activity [2]: ~15 fold

GGUGCAAUGCAACUGAUGAGUCCGUGAGGACGAAACAGGAGUUGCGAAUU (ssRNA) [IL-2-Rz2]
activity [3]: 15 fold
